# Experimental data taken from patent US20190343964A1 (SHIZUOKA PERFECTURE, published 2019).
# B1: H4.209 (antibody, V domains shown)
# VH: EVKLVESGGGLVKPGGSLKLSCAASGFTFSNYALSWVRQTPEKRLEWVASISGGGSTYYPDSVKGRFIISRDNARNILYLQMSSLRSEDTAMYYCARGPSYDDYYFDVWG
# VL: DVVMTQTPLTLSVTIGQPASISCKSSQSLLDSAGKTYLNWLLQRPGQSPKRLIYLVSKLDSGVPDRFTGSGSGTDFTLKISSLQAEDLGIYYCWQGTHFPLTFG
# notes: Mouse hybridoma monoclonal antibody; also called anti-B7-H4 monoclonal antibody produced from hybridoma clone #209
# B2: H4.121 (antibody, V domains shown)
# VH: QVQLQQSGAELMKPGASVKISCKATGYTFSSYWIEWVKQRPGHGLEWIGEILHGSDSTNYNENFKGKATFTADTSSNTAYMRLSSLTSEDSAVYYCASHYYGSSPFAYWG
# VL: not shown
# notes: Mouse hybridoma monoclonal antibody; also called anti-B7-H4 monoclonal antibody produced from hybridoma clone #121
# B3: H4.140 (antibody, V domains shown)
# VH: EVQLVESGGDLVKPGGSLKLSCAASGFTFSTYGMSWVRQTPDKRLEWVATISSGGNYTYYPDSVKGRFTISRDNAKNTLYLQMSSLKSEDTAMYYCARPYGNHFDYWG
# VL: DIQMTQSPASLAASVGETVTITCRASENIYYSLAWYQQKQGKSPQLLIYNANSLEDGVPSRFSGSGSGTQYSMKINSMQPEDTATYFCKQAYDVPYTFG
# notes: Mouse hybridoma monoclonal antibody; also called anti-B7-H4 monoclonal antibody produced from hybridoma clone #140
# B4: H4.018 (antibody)
# chain 1: EVKLVESGGGLVKPGGSLKLSCAASGFTFSSYAMSWVRQTPEKRLEWVATISSGGNYTYYPDSVKGRFTISRDNAKNTLYLQMSSLRSEDTAMYYCARHRYDNNYDYYAMD
# chain 2: NIQMTQSPSSLAVSAGEKVTMSCKSSHAVLYSSNQKNYLAWYQQKPGQSPKLLIYWASTRDSGVPDRFTGGGSGTDFTLTITNIQPEDLAVYYCHQYLSSWTFGGGTKVEIK
# B5: H4.051 (antibody, V domains shown)
# VH: EVQLQQSGAELVRSGASVKLSCTASGFNIKDFYVHWVKQRPEQGLEWIGWIDPAHVDTEYAPKFQGKTTMTADTSSNTAYLQLSSLTSEDSAVYYCNALLPRTMDYWG
# VL: DVVLTQTPLSLPVNVGDQASISCKSTKSLLNSDGFTYLDWYLQKPGQSPQLLIYLVSNRFSGVPDRFSGSGSGTDFTLKISRVEAEDLGVYYCFQSNYLPYTFG
# notes: Mouse hybridoma monoclonal antibody; also called anti-B7-H4 monoclonal antibody produced from hybridoma clone #51
# B6: Fab-scFv according to the present invention (bispecific antibody)
# heavy: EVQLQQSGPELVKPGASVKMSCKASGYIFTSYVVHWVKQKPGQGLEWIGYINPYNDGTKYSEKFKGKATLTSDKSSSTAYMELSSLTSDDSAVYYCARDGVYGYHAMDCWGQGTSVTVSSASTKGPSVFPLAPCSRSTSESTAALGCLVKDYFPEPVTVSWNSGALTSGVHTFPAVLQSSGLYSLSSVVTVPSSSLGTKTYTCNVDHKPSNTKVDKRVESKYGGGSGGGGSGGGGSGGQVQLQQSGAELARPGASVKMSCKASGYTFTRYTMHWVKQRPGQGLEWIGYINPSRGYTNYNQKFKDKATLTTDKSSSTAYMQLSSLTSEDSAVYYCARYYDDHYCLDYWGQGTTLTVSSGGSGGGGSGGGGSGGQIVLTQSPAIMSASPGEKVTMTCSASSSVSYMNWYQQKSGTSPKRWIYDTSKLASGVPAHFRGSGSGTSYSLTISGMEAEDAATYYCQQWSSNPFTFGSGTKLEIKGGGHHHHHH
# light: NIQMTQSPSSLAVSAGEKVTMSCKSSHAVLYSSNQKNYLAWYQQKPGQSPKLLIYWASTRDSGVPDRFTGGGSGTDFTLTITNIQPEDLAVYYCHQYLSSWTFGGGTKVEIKRTVAAPSVFIFPPSDEQLKSGTASVVCLLNNFYPREAKVQWKVDNALQSGNSQESVTGQDSKDSTYSLSSTLALSKADYEKHKVYACEVTHQGLSSPVTKSFNRGEC
# Target: T1, soluble human B7-H4 recombinant protein (human, UniProt Q7Z7D3 25-259)
# T1 construct: also called a free form of B7-H4
# T1 sequence: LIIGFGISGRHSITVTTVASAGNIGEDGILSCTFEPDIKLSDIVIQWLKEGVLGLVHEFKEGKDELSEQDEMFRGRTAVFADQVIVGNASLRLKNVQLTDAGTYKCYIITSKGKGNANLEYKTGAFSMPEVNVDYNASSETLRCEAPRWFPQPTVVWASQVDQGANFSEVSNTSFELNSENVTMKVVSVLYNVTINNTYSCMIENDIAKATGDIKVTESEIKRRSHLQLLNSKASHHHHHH
# Test: ELISA, hybridoma culture supernatant diluted 2 times on immobilized free form of B7-H4
# Experimental: Specifically, the free form of B7-H4 was added to a 96 well Immobilizer Amino Plate (Thermo Fisher Scientific) and incubated at room temperature for 2 hours to immobilize the free form of B7-H4 on the plate surface. Simultaneously, wells with no immobilization of the free form of B7-H4 were prepared as negative control. After incubation, the antigen that was not immobilized was removed and the wells were filled with PBS containing 3% BSA and incubated at 4° C. overnight. In this step, nonspecific binding capacity to the plate surface was blocked to produce a plate for ELISA.
# The culture supernatant of each of the plurality of hybridoma lines obtained in Example 2 was 2-times diluted with PBS containing 0.05% Tween20 to prepare a supernatant sample. The buffer was removed from the wells of the aforementioned plate for ELISA and then the supernatant sample was added and incubated at room temperature for 2 hours. The plate was washed to remove the unbound antibody and then a horseradish peroxidase (HRP) labeled anti-mouse immunoglobulin antibody (GE Healthcare) was added and incubated for 1 hour. The wells were washed, then a peroxidase substrate (BD Biosciences) was added and incubated for 30 minutes, and a sulfuric acid solution at a concentration of 0.1 M or higher was added to stop the color development. Whether an antibody that recognizes B7-H4 in a supernatant sample was contained was examined by measuring the absorption of the solution in each well at a wavelength of 450 nm.
row,OD 450 nm [OD 450 nm],Binder
1,1.93,B1
2,2.02,B2
3,1.06,B3
4,1.96,B4
5,1.96,B5

# Target: T2, B7-H4 expressed on the membrane surface of cancer cells (human, UniProt Q7Z7D3 25-282)
# T2 sequence (looked up): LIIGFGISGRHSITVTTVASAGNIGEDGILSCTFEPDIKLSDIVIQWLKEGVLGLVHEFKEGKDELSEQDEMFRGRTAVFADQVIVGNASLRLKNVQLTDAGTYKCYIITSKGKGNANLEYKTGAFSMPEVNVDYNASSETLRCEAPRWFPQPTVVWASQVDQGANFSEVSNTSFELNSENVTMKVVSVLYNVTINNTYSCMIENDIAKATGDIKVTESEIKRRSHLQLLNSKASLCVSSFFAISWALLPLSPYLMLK
# Test: cell-based or functional assay
row,Binder,"50% maximum effective concentration (EC50) of cytotoxicity (% Lysis) to MDA-MB-468 cells, LDH release, with human peripheral blood mononuclear cells, 16 hours [µg/mL]"
1,B6,0.013
